This is an account of results in patent publication US20130295010A1, “HER2 BINDING PEPTIDES LABELLED WITH A 18F - CONTAINING ORGANOSILICON COMPOUND” (priority 2010, published 2013).

In series [1] the test system is target-expressing SKOV3 tumors. Particulars: mouse, in vivo.
Description: In vivo studies were carried out with female CD-1 nude mice (Charles River Labs, Hopkinton, Mass.) with an age range between 6 and 15 weeks. Mice were housed in a ventilated rack with food and water ad libitum and a standard 12 hour day-night lighting cycle. For xenografts, animals were injected with 100 μl of cells in PBS. Cells were implanted subcutaneously in the right hindquarter. Implantation was performed under isoflurane anesthesia. For SKOV3, between 3×10^6 to 4×10^6 cells were implanted in each mouse. Under these conditions, useable tumors (100 to 300 μg) were obtained in 3 to 4 weeks in greater than 80% of animals injected.
Mice were given tail-vein injections of ˜1 μg of ^99mTc-labeled polypeptides (˜3 μCi/1 μg). […] Three mice were euthanized at each timepoint and tissues of interest dissected and counted on a Perkin Elmer Wallac Wizard 1480 Gamma Counter. […] Urine from cages was pooled with the bladder and also counted. The remaining tissues were counted and the sum of all tissues plus urine for each animal was summed to provide the total injected dose. The % injected dose for each organ was determined based on this total, and organs were weighed for determination of the % injected dose per gram, (% ID/g). […]
Mice were given tail-vein injections of ˜1 ug of ^99mTc-labeled polypeptides (˜10 μCi/1 μg). […] Urine from cages was pooled with the bladder and also counted. […]
The conditions of series [2]: mouse, in vivo, iv, 3 MBq, 1.5 h.
Description: Following intravenous injection of 3 MBq of activity (2.5 MBq for the 2 min time point), animals were sacrificed at 2, 90, 120 and 180 min post injection and retention of radioactivity was assessed in key organs.

For “Z02891 (SEQ. ID No. 2) ^18F-fluorobenzyl oxime: Z02891-ONH2 (Mal-AO linker on C-terminal cysteine) conjugated with [18F]4-fluorobenzaldehyde”, the “activity in the kidneys” value in series [1] amounted to 0.95±0.07 ID/organ.

Regarding “[18F]AlF-NOTA(COOH)-2-Z02891(SEQ ID No. 2) [Compound 5]”, the kidney retention in series [2] is reported as 70.3 % ID.
